Assay results from patent US20190159997A1, “COMPOSITIONS COMPRISING POLYESTERS OF BIOLOGICAL ORIGIN AND BIOCOMPATIBLE INORGANIC COMPOUNDS, AND USES THEREOF IN THE COSMETIC FIELD” (BIO-ON S.p.A., priority 2016, published 2019).

Test system: Streptococcus mutans ATCC 35668
Assay: antibacterial effectiveness by bacterial count on Petri plates
Type: cell-based
Details: growth of Streptococcus mutans ATCC 35668
Protocol: Following the same procedure described in Example 4, two compositions of lactoferrin, hydroxyapatite and PHA were prepared, using solutions of lactoferrin with concentrations equal to 60 mg/ml and 80 mg/ml, and the same aqueous suspensions of HA and PHA used in Example (weight ratio between lactoferrin and mixture of HA+PHA equal to 1:1). The antibacterial effectiveness of these compositions was assessed, by means of bacterial count on Petri plates with respect to the growth of Streptococcus mutans ATCC 35668.

B1: lactoferrin (protein, UniProt P02788 20-710, looked up)
Lactotransferrin: GRRRSVQWCAVSQPEATKCFQWQRNMRKVRGPPVSCIKRDSPIQCIQAIAENRADAVTLDGGFIYEAGLAPYKLRPVAAEVYGTERQPRTHYYAVAVVKKGGSFQLNELQGLKSCHTGLRRTAGWNVPIGTLRPFLNWTGPPEPIEAAVARFFSASCVPGADKGQFPNLCRLCAGTGENKCAFSSQEPYFSYSGAFKCLRDGAGDVAFIRESTVFEDLSDEAERDEYELLCPDNTRKPVDKFKDCHLARVPSHAVVARSVNGKEDAIWNLLRQAQEKFGKDKSPKFQLFGSPSGQKDLLFKDSAIGFSRVPPRIDSGLYLGSGYFTAIQNLRKSEEEVAARRARVVWCAVGEQELRKCNQWSGLSEGSVTCSSASTTEDCIALVLKGEADAMSLDGGYVYTAGKCGLVPVLAENYKSQQSSDPDPNCVDRPVEGYLAVAVVRRSDTSLTWNSVKGKKSCHTAVDRTAGWNIPMGLLFNQTGSCKFDEYFSQSCAPGSDPRSNLCALCIGDEQGENKCVPNSNERYYGYTGAFRCLAENAGDVAFVKDVTVLQNTDGNNNEAWAKDLKLADFALLCLDGKRKPVTEARSCHLAMAPNHAVVSRMDKVERLKQVLLHQQAKFGRNGSDCPDKFCLFQSETKNLLFNDNTECLARLHGKTTYEKYLGPQYVAGITNLKKCSTSPLLEACEFLRK
notes: lactoferrin alone, aqueous solution with a concentration of 60 mg/ml and 80 mg/ml; protein having an antioxidizing action
Reduction bacterial growth (%) (lactoferrin solution 60 mg/ml): 30%
Reduction bacterial growth (%) (lactoferrin solution 80 mg/ml): 35%
